# Measured values: US20250136694A1 (HARBOUR BIOMED SHANGHAI, published 2025)
# T1: mouse B7-H4 on the cell surface (mouse, UniProt Q7TSP5 25-257)
# T1 construct: whole, on cells; also called m B7-H4; CHO-K1/mB7-H4
# T1 sequence (looked up): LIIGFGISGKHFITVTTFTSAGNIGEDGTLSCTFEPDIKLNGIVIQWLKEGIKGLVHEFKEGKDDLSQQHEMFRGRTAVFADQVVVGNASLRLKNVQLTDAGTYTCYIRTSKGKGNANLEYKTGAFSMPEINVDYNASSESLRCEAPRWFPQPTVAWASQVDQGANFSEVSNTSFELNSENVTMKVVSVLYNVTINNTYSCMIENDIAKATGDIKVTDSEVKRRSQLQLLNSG
# T2: human B7-H4 on the cell surface (human, UniProt Q7Z7D3 25-282)
# T2 construct: whole, on cells; also called hu B7-H4; CHO-K1/huB7-H4
# T2 sequence (looked up): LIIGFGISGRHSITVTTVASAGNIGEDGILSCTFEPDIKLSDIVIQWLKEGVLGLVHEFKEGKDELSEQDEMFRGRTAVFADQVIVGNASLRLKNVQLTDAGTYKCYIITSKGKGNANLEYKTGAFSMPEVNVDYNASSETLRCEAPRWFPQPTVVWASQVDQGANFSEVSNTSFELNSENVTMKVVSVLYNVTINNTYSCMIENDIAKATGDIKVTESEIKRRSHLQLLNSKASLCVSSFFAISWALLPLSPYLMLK
# T3: cynomolgus monkey B7-H4 on the cell surface (cynomolgus monkey, UniProt A0A2K5U6P5 25-282)
# T3 construct: whole, on cells; also called cyno B7-H4; CHO-K1/cynoB7-H4
# T3 sequence: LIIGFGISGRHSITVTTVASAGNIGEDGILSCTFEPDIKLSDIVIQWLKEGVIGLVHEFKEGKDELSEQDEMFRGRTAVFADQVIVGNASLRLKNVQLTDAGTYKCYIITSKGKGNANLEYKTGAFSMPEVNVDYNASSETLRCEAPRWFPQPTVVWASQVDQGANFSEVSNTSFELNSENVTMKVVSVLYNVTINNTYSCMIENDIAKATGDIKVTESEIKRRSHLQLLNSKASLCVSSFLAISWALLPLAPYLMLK
# T4: human B7-H4 (protein in solution, BLI) (human, UniProt Q7Z7D3 25-258, limits assumed)
# T4 sequence (looked up): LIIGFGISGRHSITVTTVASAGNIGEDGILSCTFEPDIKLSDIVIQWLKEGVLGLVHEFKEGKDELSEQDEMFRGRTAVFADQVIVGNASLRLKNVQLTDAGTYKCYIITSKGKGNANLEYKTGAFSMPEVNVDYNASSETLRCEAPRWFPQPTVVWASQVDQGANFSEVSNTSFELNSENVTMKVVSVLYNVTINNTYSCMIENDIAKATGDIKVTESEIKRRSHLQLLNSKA
# What was measured:
# [1] = biological target: T1, mouse B7-H4 on the cell surface; assay: FACS, CHO-K1/m B7-H4 cells
# [2] = biological target: T2, human B7-H4 on the cell surface; assay: FACS, MDA-MB-468 cells
# Description: (§1) Antibody binding experiments at the cellular level were performed using tumor cells endogenously expressing B7-H4 or primary T cells expressing CD3. MDA-MB-468 cells or human T cells were resuspended in PBS containing 2% BSA. The cell density was adjusted to 1×10⁶ cells/mL. The cells were seeded in a 96-well V-bottom plate (Corning, #3894) at 100 μL/well, followed by the addition of test antibodies 3-fold serially diluted at a concentration that was 2 times the final concentration, each at 100 μL/well. The cells were incubated away from light at 4° C. for 2 h. Then, the cells in each well were rinsed twice with 100 μL of pre-cooled PBS containing 2% BSA and centrifuged at 500 g at 4° C. for 5 min, and then the supernatant was discarded. […] The cells in each well were rinsed twice with 100 μL of pre-cooled PBS containing 2% BSA and centrifuged at 500 g at 4° C. for 5 min, and then the supernatant was discarded. Finally, the cells in each well were resuspended with 200 μL of pre-cooled PBS containing 2% BSA, and the fluorescence signal values were read using an ACEA Novocyte3000 flow cytometer.
# The results are shown in Tables 6-1, 6-2, and 6-3 and FIGS. 5A-5F.
# [3] = biological target: T2, human B7-H4 on the cell surface; assay: FACS, MDA-MB-468 cells; remark: listed apart in the source
# Description: as §1
# [4] = biological target: T2, human B7-H4 on the cell surface; assay: FACS, CHO-K1/hu B7-H4 cells
# Description: (§2) This example is intended to investigate the in vitro binding activity of the CD3 bispecific antibodies of B7-H4 for human, cynomolgus monkey, and mouse B7-H4. Antibody binding experiments at the cellular level were conducted using a CHO-K1 cell strain overexpressing human B7-H4 (CHO-K1/huB7-H4, Harbour BioMed), a CHO-K1 cell strain overexpressing cynomolgus monkey B7-H4 (CHO-K1/cynoB7-H4, Harbour BioMed), and a CHO-K1 cell strain overexpressing mouse B7-H4 (CHO-K1/mB7-H4, Harbour BioMed). Briefly, cells were digested and resuspended in PBS containing 2% FBS, and the cell density was adjusted to 1×10⁶ cells/mL. The cells were seeded in a 96-well V-bottom plate (Corning, Cat #3894) at 100 μL/well, followed by the addition of test antibodies 3-fold serially diluted at a concentration that was 2 times the final concentration, each at 100 μL/well. The cells were incubated away from light at 4° C. for 2 h. Then, the cells in each well were rinsed twice with 100 μL of pre-cooled PBS and centrifuged at 500 g at 4° C. for 5 min, and then the supernatant was discarded. […] The cells in each well were then rinsed twice with 100 μL of pre-cooled PBS and centrifuged at 500 g at 4° C. for 5 min, and then the supernatant was discarded. Finally, the cells in each well were resuspended in 200 μL of pre-cooled PBS, and the fluorescence signal values were read using ACEA Novocyte3000.
# [5] = biological target: T3, cynomolgus monkey B7-H4 on the cell …; assay: FACS, CHO-K1/cyno B7-H4 cells
# Description: as §2
# [6] = biological target: T4, human B7-H4 (protein in solution, BLI); assay: BLI (Octet), antibody captured on AHC sensor, antigen in solution
# Description: The binding kinetics between the antigen and the antibody was analyzed by the biolayer interferometry (BLI) technique using an Octet Red 96e molecular interaction analyzer (Fortebio).
# When the affinity of the antigen for the antibody was determined, the rotation speed of the sensor was set at 1000 rpm/min. […] Finally, the AHC sensor was immersed in a 10 mM glycine-hydrochloric acid solution at pH 1.5 for regeneration to elute the proteins bound to the sensor.
# When data analysis was performed using Octet Data Analysis software (Fortebio, version 11.0), 0 nM was taken as a reference well, and reference subtraction was performed; the “1:1 Global fitting” method was selected to fit the data, and the kinetics parameters of the binding of antigens to antigen-binding proteins were calculated, with kₒₙ(1/Ms) values, kdis(1/s) values, and KD(M) values obtained (see Table 3 and FIG. 2).
# [7] = biological target: T1, mouse B7-H4 on the cell surface; assay: FACS, CHO-K1/m B7-H4 cells; remark: listed apart in the source
# Description: as §2
Binder,binding result [1],EC50 [2] [nM],EC50 [3] [nM],EC50 [4] [nM],EC50 [5] [nM],Kd [6] [nM],koff [6] [s⁻¹],kon [6] [M⁻¹ s⁻¹],EC50 [7] [nM]
"PR006391 (bispecific antibody, human IgG1, lambda, also called B7-H4xCD3 bispecific antibody; PR003886 Fab + bivalent PR007440) light: QAVVTQEPSLTVSPGGTVTLTCRSSTGAVTTSNYANWVQQKPGQAPRGLIGGTNKRAPWTPARFSGSLLGDKAALTLLGAQPEDEAEYFCALWYSNLWVFGGGTKLTVLGQPKAAPSVTLFPPSSEELQANKATLVCLISDFYPGAVTVAWKADSSPVKAGVETTTPSKQSNNKYAASSYLSLTPEQWKSHRSYSCQVTHEGSTVEKTVAPTECS heavy: EVQLVESGGGLVQPGGSLKLSCAASGFTFSTYAMNWVRQASGKGLEWVGRIRSKYNNYATYYADSVKDRFTISRDDSKNTAYLQMNSLKTEDTAVYYCTRHGNFGNSYVSWFAYWGQGTLVTVSSASTKGPSVFPLAPSSKSTSGGTAALGCLVKDYFPEPVTVSWNSGALTSGVHTFPAVLQSSGLYSLSSVVTVPSSSLGTQTYICNVNHKPSNTKVDKKVEPKSCDKTHTCPPCPAPEAAGAPSVFLFPPKPKDTLMISRTPEVTCVVVDVSHEDPEVKFNWYVDGVEVHNAKTKPREEQYNSTYRVVSVLTVLHQDWLNGKEYKCKVSNKALPAPIEKTISKAKGQPREPQVYTLPPCREEMTKNQVSLWCLVKGFYPSDIAVEWESNGQPENNYKTTPPVLDSDGSFFLYSKLTVDKSRWQQGNVFSCSVMHEALHNHYTQKSLSLSPGK EVQLVESGGGLVQPGGSLRLSCAASGFAFSNYWMHWARQVPGKGRVWISRISGDSRSTSYADSVKGRFTISRDNAKNMVYLQMNNLRAEDTAVYYCARDRFGDDYYYGMNVWGQGTTVTVSSGGGGSGGGGSGGGGSEVQLVESGGGLVQPGGSLRLSCAASGFAFSNYWMHWARQVPGKGRVWISRISGDSRSTSYADSVKGRFTISRDNAKNMVYLQMNNLRAEDTAVYYCARDRFGDDYYYGMNVWGQGTTVTVSSASEPKSSDKTHTCPPCPAPEAAGAPSVFLFPPKPKDTLMISRTPEVTCVVVDVSHEDPEVKFNWYVDGVEVHNAKTKPREEQYNSTYRVVSVLTVLHQDWLNGKEYKCKVSNKALPAPIEKTISKAKGQPREPQVCTLPPSREEMTKNQVSLSCAVKGFYPSDIAVEWESNGQPENNYKTTPPVLDSDGSFFLVSKLTVDKSRWQQGNVFSCSVMHEALHNHYTQKSLSLSPGK",no binding,19.1,15.8,3.54,3.79,3.75,0.000339,90400,–
"PR005885 (bispecific antibody, human IgG1, lambda, Chain-3 is the VL-linker-VH scFv of anti-B7-H4 antibody PR003366 fused to hinge-CH2-CH3 (hole); also called B7-H4xCD3 bispecific antibody; 1+1 Fab-Fc-scFv) light: QAVVTQEPSLTVSPGGTVTLTCRSSTGAVTTSNYANWVQQKPGQAPRGLIGGTNKRAPWTPARFSGSLLGDKAALTLLGAQPEDEAEYFCALWYSNLWVFGGGTKLTVLGQPKAAPSVTLFPPSSEELQANKATLVCLISDFYPGAVTVAWKADSSPVKAGVETTTPSKQSNNKYAASSYLSLTPEQWKSHRSYSCQVTHEGSTVEKTVAPTECS heavy: EVQLVESGGGLVQPGGSLKLSCAASGFTFSTYAMNWVRQASGKGLEWVGRIRSKYNNYATYYADSVKDRFTISRDDSKNTAYLQMNSLKTEDTAVYYCTRHGNFGNSYVSWFAYWGQGTLVTVSSASTKGPSVFPLAPSSKSTSGGTAALGCLVKDYFPEPVTVSWNSGALTSGVHTFPAVLQSSGLYSLSSVVTVPSSSLGTQTYICNVNHKPSNTKVDKKVEPKSCDKTHTCPPCPAPEAAGAPSVFLFPPKPKDTLMISRTPEVTCVVVDVSHEDPEVKFNWYVDGVEVHNAKTKPREEQYNSTYRVVSVLTVLHQDWLNGKEYKCKVSNKALPAPIEKTISKAKGQPREPQVYTLPPCREEMTKNQVSLWCLVKGFYPSDIAVEWESNGQPENNYKTTPPVLDSDGSFFLYSKLTVDKSRWQQGNVFSCSVMHEALHNHYTQKSLSLSPGK scFv: EIVMTQSPASLSVSPGERATLSCRASQSVSSNLAWYQQKPGQAPRLLIYGASTRATGIPARVSGGGSGTEFTLTISSLQSEDFAVYYCQQYKNWPFTFGPGTKLEIKGGGGSGGGGSGGGGSGGGGSQVQLVQSGAEVKKPGSSMRVSCKASEDTFSSYAISWVRQAPGQGLEWMGGTAPIFGTTNYAQKFQGRVTITADKSTSTAYMELSSLRSEDTAVYYCARGGPYFDYWGQGTLVTVSSASEPKSSDKTHTCPPCPAPEAAGAPSVFLFPPKPKDTLMISRTPEVTCVVVDVSHEDPEVKFNWYVDGVEVHNAKTKPREEQYNSTYRVVSVLTVLHQDWLNGKEYKCKVSNKALPAPIEKTISKAKGQPREPQVCTLPPSREEMTKNQVSLSCAVKGFYPSDIAVEWESNGQPENNYKTTPPVLDSDGSFFLVSKLTVDKSRWQQGNVFSCSVMHEALHNHYTQKSLSLSPGK",–,–,92.6,4.79,5.92,–,–,–,37
